{"source": "the DeepSol protein solubility set", "data": [{"assay": "soluble on expression in E. coli; label from the status in PepcDB or PDB records", "values": [{"sequence": "MGSRENLYFQGLEHHHHHHHMKIISKMLVGALALAVTNVYAAELMTKAEFEKVESQYEKIGDISTSNEMSTADAKEDLIKKADEKGADVLVLTSGQTDNKIHGTANIYKKK", "soluble on expression in E. coli": "soluble"}, {"sequence": "MSLIPKFRAWDTYEKEMLENVTPLFDDSNSMIAIITDFQIKGSPGTSEIEIGSYDTTFNWDEFPYVIMQSTGLKDKNGVEIFEGDILVYDAPKKYAHRRSMHEIAYADGRFFWEFLDLVFCQSNILYRDGYLVIGNIHENPELLEGNEGHHHHHH", "soluble on expression in E. coli": "soluble"}, {"sequence": "MSQDIFTRDNLLRVENPNILVGESPVKYRVEEIYLDGKLKKAEDVDEEEKSYGIFMHSLVLSNYAEVMNVSHKKLDVIRDEKEKAIFYFTEEKGFDKSLIESIVPKVEAFSLNEDKLKVSTHIINEKMRIISRGTPDELLKRCSYILLDSKIVKKTRKIYREINRVLNDMINRCCTVYALAIKDVSKTDIITNVDAYIDGMTLVALIGMCRA", "soluble on expression in E. coli": "soluble"}, {"sequence": "MSLVALTEDTQANANIGRLTVQTVEIADETTAIRCLDWDRERFDIEFGLRNGTTYNSFLIKGEKIALVDTSHRKFEKLYLEIVAGLIDPNTIDYLIVSHTEPDHSGLVKDILQLAPNITIVGAKVAIQFLENMVHQPFKSLQVKSGERLDLGNGHSLEFVSAPNLHWPDTILTYDHKTGILYTCDVFGMHYCDDQTYDENFFAIEEDFKYYYDCLMGPNARSVLAALKRIENLAIKTVATGHGPLLQVHISEWLGRYKNWSLEQAKTETLVALFYAEDYGYSEHLVHILGHGCTKTGVAVELIDLNTAEPQEVRELVTQASGLVIAMPSQYSLTAQAALNTILAAVHHKQAIGLLESGGGEDEPVFPLRNKFQELGLVEAFPPILIKEAPAQTTEQLCEEAGTDIGQWLTRDRTIKQIKSINTDLEKALGRISTGLYIITTKKGEIQGAMFASWVTQASLNPLGVAIAVSKERAIESLMQVGDHFVLNVLEEDNYQGLMKHFLKRFAPGADRFAGIKTYPATDGSPILAESLAYTECEITSRMDCGDHWIIYSTVHVGRVANVHAMTAVHHRKVGNHYEGHHHHHH", "soluble on expression in E. coli": "soluble"}, {"sequence": "MKSSSPISSLTTIISTGTNLGSGTDDDIYFGIHLNNGQKKEWLLDKETYNDFENGATDEYYLYINDMDFLPTMVDKVWVRKNSTGSFAGNWFFKALRIDANGNDVLSVSPNEWITDSNSQAEFNSDWSSVTNLTDPEFLEHHHHHH", "soluble on expression in E. coli": "soluble"}, {"sequence": "MEQLNKMAPKDVRALIREGKINGPTAGMSGGYAQANLVVLKKDLAFDFLLFCQRNQKPCPVLDVTEAGSPVPSLLRRMLISRTDFPKYRIYRHGILTEEVSDITPYWEDDFVGFLIGCSFSFEQALINNGIAVRHIDEGTNVSMYKTNIDCFPVGAFHGQMVVSMRPVPERLAVRAAQVTSRFPAVHGGPIHIGNPGAIGIRDLGKPDFGDAVSIRDGEVPVFWACGVTPQAVAMNVKPEMVITHAPGHMLITDIRDESLAVLLEHHHHHH", "soluble on expression in E. coli": "soluble"}, {"sequence": "MVESTRVRSKRLSFSGKKTLSSFMQVNIASLRQSGKLRTSETYRATLNSFMKFMDGKDVLLSNMDAELMMGYETYLKAQGASMNTVSFYMRILRATYNRAVDKGVIRQRFPFKHVYTGVEKTVKRAISFKVIRQLKEMDLSHSQSMEFARDMFMFSFYTRGMSFVDMAFLKKTDLNNGMLTYRRKKTGQLLSIRWEKCMQDIVDKYPGNYSTYLLPIIIHIRKDERLQYKNSICLVNRRLKEIGKKLGLVHPLTMYVARHSWASVARGKHIPLSVISEGMGHDSEKTTLIYLAALDTTVIDKANMVVLREFL", "soluble on expression in E. coli": "not soluble"}, {"sequence": "MTDEFKKSTANLKKAVPLMIKNHVAATPANYALWYTYVDKTIPELNFEMDEVLEHYGICPPAANKQLYNNYVASRAETSLEDLKTNVEVLLHEVSSSMSDTLSDTSSFSAMVDKSFNKLEKVEDNSLSIEEVMVVIRQLVAESHEIRHSTKFLNRQLTNASEEISR", "soluble on expression in E. coli": "not soluble"}, {"sequence": "MEGIIDKENERVRRFFALLDDMEKKVERLARDNRPPFNGERFLTDRELSGMLKISRRCLQDYRDQGRIPYIQLGGKILYRQSDIERLLEENYHPALV", "soluble on expression in E. coli": "not soluble"}, {"sequence": "MAHHHHHHMATLTEDEIAPSAIAAERERLQEATQHVAELERRLDALQRELEAACTRREQLLLSVQWRELMAAVNADEDVYAVAERMMDAFAAFRESLVEPENYLQEQREEVLKEDDIVPYSDTDDYADFSGVEAVVEELLAAVKEQLESHAAAPPSSFRQTKHSSLRGSFASDERPKHPDGESAEAHKVSADARRQALLKLLVITVLMGRVEQYCRFKSISDASNVPQSEAEEMRDGVASVWQWLFHEQPGVLTAEEGAEWKHIAGAFLGDSYTVAP", "soluble on expression in E. coli": "not soluble"}, {"sequence": "MVATLIIIRGNSASGKSTIAKQLQAELGENTLLLSQDYLRREMLGTKDGENTTTIPLLINLLNYGYHNCSYIILEGILRSDWYTPVWKHILKHNPNNTYAYYYDLSFQETVKRHSTR", "soluble on expression in E. coli": "not soluble"}, {"sequence": "MGHHHHHHSHMHGWTWSVPKFMKRMKVPDYKDKAVFGVPLIVHVQRTGQPLPQSIQQALRYLRSNCLDQVGLFRKSGVKSRIHALRQMNENFPENVNYEDQSAYDVADMVKQFFRDLPEPLFTNKLSETFLHIYQYVSKEQRLQAVQAAILLLADENREVLQTLLCFLNDVVNLVEENQMTPMNLAVCLAPSLFHLNLL", "soluble on expression in E. coli": "not soluble"}, {"sequence": "MKYLLVDLSGKVDNYDKALYQALEKELSNEKSSIQLLIPGHGLIRLIPNKFSQTEFIVKRLIKALEGGINYIYLLLHVAFKKIDTIHFQWLPFVEVVGIEKYILYLLHVLSPQTKVILTIHNIYPHGVKSMSDSGKQKYKKRFRDTCRNIDNIIVHTESSKMEVIKEFDFVPDIISIVHHGVFIPKIRISKKEFLQKNKYVILQFGLQTYYKGTDILVDAVNLLPAEYSEKIETRIVGGVGESYLQELKGKDSNSLIHWKSYFLSNDELYEEINNSDVLVLPYREISQSGVLLLSIYFEKNIICSDLPSFVETIHGDQDNSLDHDFFFKNNDPSSLCELLMRYIDSNINNEKIQYRIKHLKNLYSWENAAKATISIYRK", "soluble on expression in E. coli": "not soluble"}, {"sequence": "MKTKLMTLQDATGFFRDGMTIMVGGFMGIGTPSRLVEALLESGVRDLTLIANDTAFVDTGIGPLIVNGRVRKVIASHIGTNPETGRRMISGEMDVVLVPQGTLIEQIRCGGAGLGGFLTPTGVGTVVEEGKQTLTLDGKTWLLERPLRADLALIRAHRCDTLGNLTYQLSARNFNPLIALAADITLVEPDELVETGELQPDHIVTPGAVIDHIIVSQESK", "soluble on expression in E. coli": "soluble"}, {"sequence": "MFFRSKKTHFLEVDKFWTPEKIVRSSEVKRINKNTEISTQESTSTSTEYQFATLEDFQNAMAEKDQNIKKLKEEVEKLIDEQEDEIILAEMQFEIFQIKAETEARRLKKLLIMRNEDFSILKTKYEDLQKQFYDLSPYPVNGYGGILIGDETPKQEKLMDQLLDKLKVLNDGDYYDIFHLLETIDKIIVTFSLYFKDPILITKKMEDNKQIIQKLEDEVDYLTKNLESLNPSQLVTSLENKDDYLLVTVEFQKRKNILFSELKKKNEEIKMLQESFNVYQKDSIEKVMEKFLELQHQNLTVFSVDDTNSISTELNNDRNVAKNDKSEGVESLMLENFNNSLKIALNSVKREISKQNVTIKTDEDMIKDMKKTIDSNENMIKMLADELSWKTKDCQVKVSALENQIFDKNDEIVKLKSHVSTESGNSPKLERNVRELTLKISSETSSQGTSRTYPHLEQEILTFHSEKISDPSEEANQEVREFPLEQTLEKLKLEQTESLVAILEQPGGLKTMRNDPQWLQVVDHFCDYVRKIEKLEENVKEEQMNTEMIMKERTREITELYYQKRVLEKKISEQFKEIQQVKSEISRVYEANIQEIQKSFDIKLKLKDQIIGELEAVDEMSSNHTELSDGWSDLDIVQNTEELQ", "soluble on expression in E. coli": "not soluble"}, {"sequence": "MGSDKIHHHHHHMSIVQAKFEAKETSFHVEGYEKIEYDLVYVDGIFEIQNSALADVYQGFGRCLAIVDANVSRLYGNQIQAYFQYYGIELRLFPITITEPDKTIQTFERVIDVFADFKLVRKEPVLVVGGGLITDVVGFACSTYRRSSNYIRIPTTLIGLIDASVAIKVAVNHRKLKNRLGAYHASRKVFLDFSLLRTLPTDQVRNGMAELVKIAVVAHQEVFELLEKYGEELLRTHFGNIDATPEIKEIAHRLTYKAIHKMLELEVPNLHELDLDRVIAYGHTWSPTLELAPRLPMFHGHAVNVDMAFSATIAARRGYITIAERDRILGLMSRVGLSLDHPMLDIDILWRGTESITLTRDGLLRAAMPKPIGDCVFVNDLTREELAAALADHKELCTSYPRGGEGVDVYPVYQKELIGSVK", "soluble on expression in E. coli": "not soluble"}, {"sequence": "MTEYGGGEVYLLDLDSVVDGSALRMISSGGLRGRVLIHSALVDYLYSEAKRGRSAGYAGLAELSRLMDAGVGDVEIVVVEDDARVQPRDEGELKSVLRRYALRVGATLVTSDPVQARAARALGVSVLFTGRSRTGRIRIEEFFDGRTMSVHLKEGVPPLAKVGKPGSWMFVSLSDKPLTRAEIEEIAREIIEASALEEEGFIEIDRSGSTIVQLKDYRIVITRPPLSDGWEVTAVKPVAKLRLEDYSLPEKLYNRLLERAEGILIAGAPGMGKTTFAQALATFYAEQGKVVKTIESPRDMRLPPNVTQYSKNYADLGELHDILLLSRPDYTVYDELRSDEDFQLYVDLRLAGIGMIGVVHATTPIDAVQRFLRRVELGMIPSIIDTVIFIDSGEVSKVYELSITVKLPTGLREAELSRPVVEVRDFITGELEYEIYTFGEQTMVVPVRERRGRGEAAILGAIRKLLPDAEVEVRDETLIVRLPPRSSRVTARRLKRAKKLAEKHGYDIRFMPL", "soluble on expression in E. coli": "soluble"}, {"sequence": "GGTKTAAEAAAPAVHPVSGLQIVPVTVTGTSGRHVFRSELARTSAEQAKGLMFRTELGDEEGMIFLRNPPDMATFWMRNTVIPLDIIFVGLDRRVMNIAANAVPYDETPLPAAGPTLAVLEINGGLAARLGIKPGDKVEW", "soluble on expression in E. coli": "soluble"}, {"sequence": "MGSDKIHHHHHHMIEVSRFWRDPALPFVEARQVGDGRKVCYAAHSHESFSIGVITGGRSTYINSDQCVEVGAGTTVLMNPGVVHTCNPVAGEPWSYLMLFVDQPWLQAVGFTLPTQTWSRSPVLYRRLLQAFADLFDARLPDREARLAALFHELPGMLGGNASEGGEGNPRLDAAAAFIRAHRSDPLSLEDICGACGLSRSYLIRAFRQRFGLTPHGYLLDQRVQLARAQLRQGRSIAEVAQEAGFADQAHLQRAFKQHLAATPGHYRNAVASLGAPAGAVQALKDQVNRAGDQ", "soluble on expression in E. coli": "not soluble"}, {"sequence": "MSLEDCRISRVELYALADENAPPIPWADNQEPLLYTNNIVRLFTEDGTEGLGATMSYTENFFDRCIIESLRTIVPGLIGKNPLMTQELNNWLGARCTWGGLPAKSPIDIAAWDIKGKKAGMPLYMLLGGARTKIKSYASTPMFDTVEEYFPYIDDCIEHGFTAIKLHCYCVYDKDVALVEAVEAKYGTSGIRFMLDTAGFYTPEQAMKMAKWMERHNWEWLEAPVSDYDFKTYQRLVANTDLEISSHGNCLLTLQEVTHALSTGMWSDVRQDATVCGGITQLNKCFAIAAGHSKNLEIQSMGYTLTQAANLHVALAHDNCNFFEQFYPYEAFELASKTQIRTDKEGYVHAPAGNGLGVEMDWDAVKEASFASYVFEEGHHHHHH", "soluble on expression in E. coli": "soluble"}, {"sequence": "MGSDKIHHHHHHMSDPAGKPCIICVAITGSLPTKENNPAVPITLAEQVESTHEAFEAGASIAHCHVRDDEGRPTSDPDRFAALKEGLERHCPGMIVQLSTGGRSGAGQARGAMLPLCPDMASLSVGSNNFPTRVYENPPDLVDWLAAEMLKYDIKPEIEAFDLSHILQAKRMAGDGRLAGTPYVQFVMGVRNAMPADRDVFDYYIHTVRRLFGEDAPWCAAGIGPSQIVLNEWAISSGGHARTGLEDNVRLDRDRLAPSNAALVGRAVELCEKYERPVATWRQARQILGLRMV", "soluble on expression in E. coli": "not soluble"}]}]}
